Reference: the supplement of paper PMC10567573

B1: SAT2 (parent)
chain: LTEAEGWHFFCFQGEATRKLAGK
B2: RSPH3 (parent)
chain: FIPAKTGKDVATQILEGELFDFDL

Variants of: B1
Test: protein stability index of a GFP-peptide fusion (GPS, HEK-293T) (PSI 1-6); higher = more stable
Conditions: c terminus: native
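Also: lentivirally expressed fusions sorted by FACS into six bins by GFP to DsRed ratio, PSI derived from sequencing read proportions per bin multiplied by bin number.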

Q: Which protein stability index does the source give for R18F here?
A: 1.5

Q: For R18L, which protein stability index is on record?
A: 1.53

Q: With R18Q as the variant, how does the protein stability index read?
A: 1.87

Q: With R18V as the variant, how does the protein stability index read?
A: 1.5

Q: Which protein stability index does the source give for R18K here?
A: 2.8

Q: For R18H, which protein stability index is on record?
A: 2.3

Q: With R18D as the variant, how does the protein stability index read?
A: 3.15

Q: With R18G as the variant, how does the protein stability index read?
A: 2.07

Q: With R18C as the variant, how does the protein stability index read?
A: 1.92

Q: With R18T as the variant, how does the protein stability index read?
A: 2.03

Q: Which protein stability index does the source give for R18I here?
A: 3.84

Q: Which protein stability index does the source give for R18Y here?
A: 2.21

Q: Which protein stability index does the source give for R18M here?
A: 1.71

Q: For R18P, which protein stability index is on record?
A: 2.58

Q: For R18A, which protein stability index is on record?
A: 2.09

Q: With R18N as the variant, how does the protein stability index read?
A: 2.59

Q: For K19G, which protein stability index is on record?
A: 2.25

Q: Which protein stability index does the source give for K19W here?
A: 2

Q: With K19D as the variant, how does the protein stability index read?
A: 2.76

Q: For K19H, which protein stability index is on record?
A: 2.58

Q: For K19L, which protein stability index is on record?
A: 2.93

Q: With K19C as the variant, how does the protein stability index read?
A: 2.41

Q: For K19N, which protein stability index is on record?
A: 2.93

Q: With K19F as the variant, how does the protein stability index read?
A: 1.94

Q: For K19Q, which protein stability index is on record?
A: 1.69

Q: Which protein stability index does the source give for K19A here?
A: 2.35

Q: Which protein stability index does the source give for K19I here?
A: 2.39

Q: For K19R, which protein stability index is on record?
A: 2.23

Q: Which protein stability index does the source give for K19T here?
A: 2.05

Q: For K19M, which protein stability index is on record?
A: 1.89

Q: Which protein stability index does the source give for K19E here?
A: 2.68

Q: For K19Y, which protein stability index is on record?
A: 2.11

Q: For K19P, which protein stability index is on record?
A: 2.1

Q: With G22F as the variant, how does the protein stability index read?
A: 1.8

Q: For G22V, which protein stability index is on record?
A: 3.23

Q: For G22D, which protein stability index is on record?
A: 2.64

Q: Which protein stability index does the source give for G22T here?
A: 2.27

Q: For G22L, which protein stability index is on record?
A: 1.81

Q: For G22Y, which protein stability index is on record?
A: 2.39

Q: Which protein stability index does the source give for G22S here?
A: 1.8

Q: With G22Q as the variant, how does the protein stability index read?
A: 3.22

Q: With G22I as the variant, how does the protein stability index read?
A: 1.91

Q: With G22E as the variant, how does the protein stability index read?
A: 2.54

Q: With G22K as the variant, how does the protein stability index read?
A: 2.7

Q: Which protein stability index does the source give for G22N here?
A: 2.67

Q: Which protein stability index does the source give for G22A here?
A: 1.5

Q: Which protein stability index does the source give for G22R here?
A: 3.52

Q: For G22H, which protein stability index is on record?
A: 2.48

Q: With G22W as the variant, how does the protein stability index read?
A: 2.17

Q: Which protein stability index does the source give for G22P here?
A: 2.47

Q: For G22M, which protein stability index is on record?
A: 1.6

Q: Which protein stability index does the source give for G22C here?
A: 1.07

Q: With L20P as the variant, how does the protein stability index read?
A: 3.22

Q: With L20S as the variant, how does the protein stability index read?
A: 2.94

Q: Which protein stability index does the source give for L20K here?
A: 3.3

Q: For L20N, which protein stability index is on record?
A: 3.41

Q: Which protein stability index does the source give for L20V here?
A: 1.98

Q: With L20M as the variant, how does the protein stability index read?
A: 2.91

Q: Which protein stability index does the source give for L20T here?
A: 3.52

Q: Which protein stability index does the source give for L20E here?
A: 3.6

Q: For L20Q, which protein stability index is on record?
A: 3.29

Q: For L20H, which protein stability index is on record?
A: 2.64

Q: With L20D as the variant, how does the protein stability index read?
A: 2.99

Q: For L20F, which protein stability index is on record?
A: 1.97

Q: Which protein stability index does the source give for L20I here?
A: 2.34

Q: For L20R, which protein stability index is on record?
A: 3.66

Q: With L20G as the variant, how does the protein stability index read?
A: 3.47

Q: For L20A, which protein stability index is on record?
A: 2.36

Q: For A21Y, which protein stability index is on record?
A: 2

Q: With A21S as the variant, how does the protein stability index read?
A: 2.16

Q: With A21D as the variant, how does the protein stability index read?
A: 2.73

Q: For A21P, which protein stability index is on record?
A: 1.99

Q: Which protein stability index does the source give for A21H here?
A: 3.24

Q: Which protein stability index does the source give for A21T here?
A: 2.71

Q: For A21W, which protein stability index is on record?
A: 2.34

Q: For A21K, which protein stability index is on record?
A: 2.5

Q: With A21Q as the variant, how does the protein stability index read?
A: 3.17

Q: For A21M, which protein stability index is on record?
A: 1.91

Q: With A21F as the variant, how does the protein stability index read?
A: 1.77

Q: Which protein stability index does the source give for A21N here?
A: 2.55

Q: For A21R, which protein stability index is on record?
A: 1.71

Q: For A21E, which protein stability index is on record?
A: 2.25

Q: Which protein stability index does the source give for A21C here?
A: 2.57

Q: With A21I as the variant, how does the protein stability index read?
A: 3.52

Q: With A21L as the variant, how does the protein stability index read?
A: 1.33

Q: Which protein stability index does the source give for K23C here?
A: 2.15

Q: With K23L as the variant, how does the protein stability index read?
A: 1.86

Q: With K23H as the variant, how does the protein stability index read?
A: 1.49

Q: Which protein stability index does the source give for K23P here?
A: 2.41

Q: For K23S, which protein stability index is on record?
A: 2

Q: For K23Q, which protein stability index is on record?
A: 2.81

Q: For K23I, which protein stability index is on record?
A: 2.17

Q: For K23T, which protein stability index is on record?
A: 2.33

Q: With K23R as the variant, how does the protein stability index read?
A: 1.51

Q: Which protein stability index does the source give for K23N here?
A: 2.85

Q: With K23D as the variant, how does the protein stability index read?
A: 2.06

Q: With K23V as the variant, how does the protein stability index read?
A: 1.49

Q: With K23M as the variant, how does the protein stability index read?
A: 1.01

Variants of: B2
Test: as above
Conditions: c terminus: a fixed tail appended

Q: Which protein stability index does the source give for P3K here?
A: 2.4

Q: For P3R, which protein stability index is on record?
A: 1.94

Q: With P3F as the variant, how does the protein stability index read?
A: 2.2

Q: With P3H as the variant, how does the protein stability index read?
A: 1.85

Q: Which protein stability index does the source give for P3N here?
A: 2.24

Q: Which protein stability index does the source give for P3Q here?
A: 2.5

Q: With P3V as the variant, how does the protein stability index read?
A: 1.59

Q: For P3I, which protein stability index is on record?
A: 1.97

Q: Which protein stability index does the source give for P3T here?
A: 2.24

Q: Which protein stability index does the source give for P3M here?
A: 1.6

Q: For P3Y, which protein stability index is on record?
A: 1.52

Q: Which protein stability index does the source give for P3W here?
A: 2.43

Q: For P3D, which protein stability index is on record?
A: 2.63

Q: Which protein stability index does the source give for P3A here?
A: 2.27

Q: With P3C as the variant, how does the protein stability index read?
A: 1.72

Q: For P3G, which protein stability index is on record?
A: 2.5

Q: Which protein stability index does the source give for P3E here?
A: 2.83

Q: Which protein stability index does the source give for P3L here?
A: 2.71

Q: With P3S as the variant, how does the protein stability index read?
A: 2.56

Q: With F1M as the variant, how does the protein stability index read?
A: 3.93

Q: With F1S as the variant, how does the protein stability index read?
A: 4.66

Q: Which protein stability index does the source give for F1N here?
A: 4.98

Q: Which protein stability index does the source give for F1I here?
A: 3.89

Q: Which protein stability index does the source give for F1K here?
A: 4.24

Q: For F1T, which protein stability index is on record?
A: 4.34

Q: For F1R, which protein stability index is on record?
A: 4.15

Q: For F1E, which protein stability index is on record?
A: 5.01

Q: For F1Y, which protein stability index is on record?
A: 1.9

Q: With F1W as the variant, how does the protein stability index read?
A: 2.66

Q: Which protein stability index does the source give for F1D here?
A: 4.77

Q: Which protein stability index does the source give for F1Q here?
A: 4.69

Q: Which protein stability index does the source give for F1G here?
A: 4.84

Q: Which protein stability index does the source give for F1C here?
A: 3.55

Q: For F1H, which protein stability index is on record?
A: 4.32

Q: Which protein stability index does the source give for F1V here?
A: 3.54

Q: With F1L as the variant, how does the protein stability index read?
A: 3.56

Q: For F1P, which protein stability index is on record?
A: 4.33

Q: With F1A as the variant, how does the protein stability index read?
A: 4.14

Q: Which protein stability index does the source give for A4E here?
A: 2.51

Q: For A4H, which protein stability index is on record?
A: 1.62

Q: Which protein stability index does the source give for A4G here?
A: 2.48

Q: Which protein stability index does the source give for A4L here?
A: 2.09

Q: Which protein stability index does the source give for A4M here?
A: 2.74

Q: Which protein stability index does the source give for A4K here?
A: 1.9

Q: Which protein stability index does the source give for A4D here?
A: 2.25

Q: Which protein stability index does the source give for A4F here?
A: 2.33

Q: With A4I as the variant, how does the protein stability index read?
A: 1.62

Q: Which protein stability index does the source give for A4C here?
A: 2.08

Q: With A4P as the variant, how does the protein stability index read?
A: 1.55

Q: With A4N as the variant, how does the protein stability index read?
A: 2.35

Q: With I2R as the variant, how does the protein stability index read?
A: 3.72

Q: With I2Y as the variant, how does the protein stability index read?
A: 2.96

Q: For I2W, which protein stability index is on record?
A: 2.3

Q: Which protein stability index does the source give for I2S here?
A: 2.84

Q: For I2Q, which protein stability index is on record?
A: 3.04

Q: For I2N, which protein stability index is on record?
A: 2.83

Q: For I2P, which protein stability index is on record?
A: 3.04

Q: For I2K, which protein stability index is on record?
A: 3.86

Q: Which protein stability index does the source give for I2E here?
A: 4.16

Q: With I2F as the variant, how does the protein stability index read?
A: 2.86

Q: With I2C as the variant, how does the protein stability index read?
A: 1.55

Q: Which protein stability index does the source give for I2H here?
A: 2.02

Q: With I2A as the variant, how does the protein stability index read?
A: 1.79

Q: Which protein stability index does the source give for I2T here?
A: 2.85

Q: For I2L, which protein stability index is on record?
A: 3.02

Q: With I2V as the variant, how does the protein stability index read?
A: 2.26

Q: For I2M, which protein stability index is on record?
A: 3.26

Q: Which protein stability index does the source give for I2D here?
A: 4.39

Q: Which protein stability index does the source give for I2G here?
A: 3.73
